Experimental data published in the Immune Epitope Database (IEDB).

Assays:
[1] = molecular target: HLA-A*24:03; assay: IEDB peptide-MHC binding, purified MHC/direct/fluorescence; filed as Kd, often an IC50 or EC50 that approximates it; ≥ and ≤ were set here for values at or beyond the usual limits of such assays
[2] = molecular target: HLA-C*04:01; assay: as above
[3] = molecular target: HLA-A*80:01; assay: as above
[4] = molecular target: HLA-A*01:01; assay: IEDB peptide-MHC binding, purified MHC/competitive/fluorescence; filed as Kd, often an IC50 or EC50 that approximates it; ≥ and ≤ were set here for values at or beyond the usual limits of such assays; details: source organism: Homo sapiens
[5] = molecular target: HLA-A*01:01; assay: IEDB peptide-MHC binding, purified MHC/direct/fluorescence; filed as Kd, often an IC50 or EC50 that approximates it; ≥ and ≤ were set here for values at or beyond the usual limits of such assays
[6] = molecular target: HLA-A*02:01; assay: as above
[7] = molecular target: HLA-A*03:01; assay: as above
[8] = molecular target: HLA-A*11:01; assay: as above
[9] = molecular target: HLA-A*24:02; assay: as above
[10] = molecular target: HLA-A*31:01; assay: as above
[11] = molecular target: HLA-B*07:02; assay: as above
[12] = molecular target: HLA-B*08:01; assay: as above
[13] = molecular target: HLA-B*15:01; assay: as above
[14] = molecular target: HLA-B*27:05; assay: as above
[15] = molecular target: HLA-B*40:01; assay: as above
[16] = molecular target: HLA-B*44:02; assay: as above
[17] = molecular target: HLA-B*46:01; assay: as above; details: source organism: Influenza A virus (A/Viet Nam/HN/2004(H5N1))
[18] = molecular target: HLA-B*58:01; assay: as above
[19] = molecular target: HLA-C*05:01; assay: as above; details: source organism: Escherichia coli B171
[20] = molecular target: HLA-A*02:01; assay: IEDB peptide-MHC binding, purified MHC/competitive/fluorescence; filed as Kd, often an IC50 or EC50 that approximates it; ≥ and ≤ were set here for values at or beyond the usual limits of such assays
[21] = molecular target: HLA-C*06:02; assay: IEDB peptide-MHC binding, purified MHC/direct/fluorescence; filed as Kd, often an IC50 or EC50 that approximates it; ≥ and ≤ were set here for values at or beyond the usual limits of such assays; details: source organism: Vaccinia virus WR
[22] = molecular target: HLA-C*08:02; assay: as above; details: source organism: Vaccinia virus WR
[23] = molecular target: HLA-C*12:03; assay: as above; details: source organism: Vaccinia virus WR
[24] = molecular target: HLA-C*15:02; assay: as above; details: source organism: Vaccinia virus WR
[25] = molecular target: HLA-A*68:02; assay: as above
[26] = molecular target: HLA-A*69:01; assay: as above
[27] = molecular target: HLA-B*15:17; assay: as above
[28] = molecular target: HLA-B*18:01; assay: as above; details: source organism: Camelpox virus M-96
[29] = molecular target: HLA-B*39:01; assay: as above; details: source organism: Camelpox virus M-96
[30] = molecular target: HLA-B*57:01; assay: as above
[31] = molecular target: HLA-B*35:01; assay: IEDB peptide-MHC binding, purified MHC/competitive/fluorescence; filed as Kd, often an IC50 or EC50 that approximates it; ≥ and ≤ were set here for values at or beyond the usual limits of such assays
[32] = molecular target: HLA-B*40:01; assay: as above; details: source organism: Vaccinia virus L-IPV
[33] = molecular target: HLA-B*48:01; assay: as above; details: source organism: Vaccinia virus L-IPV
[34] = molecular target: HLA-A*23:01; assay: IEDB peptide-MHC binding, purified MHC/direct/fluorescence; filed as Kd, often an IC50 or EC50 that approximates it; ≥ and ≤ were set here for values at or beyond the usual limits of such assays; details: source organism: Marburg virus - Musoke, Kenya, 1980
[35] = molecular target: HLA-A*26:03; assay: as above; details: source organism: Ravn virus - Ravn, Kenya, 1987
[36] = molecular target: HLA-B*08:03; assay: as above; details: source organism: Ravn virus - Ravn, Kenya, 1987
[37] = molecular target: HLA-A*02:06; assay: IEDB peptide-MHC binding, purified MHC/competitive/fluorescence; filed as Kd, often an IC50 or EC50 that approximates it; ≥ and ≤ were set here for values at or beyond the usual limits of such assays; details: source organism: Orthomarburgvirus marburgense
[38] = molecular target: HLA-A*26:02; assay: as above; details: source organism: Orthomarburgvirus marburgense
[39] = molecular target: HLA-B*15:01; assay: as above; details: source organism: Orthomarburgvirus marburgense
[40] = molecular target: HLA-B*18:01; assay: as above; details: source organism: Orthomarburgvirus marburgense
[41] = molecular target: HLA-A*30:02; assay: IEDB peptide-MHC binding, purified MHC/competitive/radioactivity; filed as Kd, often an IC50 or EC50 that approximates it; ≥ and ≤ were set here for values at or beyond the usual limits of such assays; details: source organism: Dengue virus 2 Jamaica/1409/1983
[42] = molecular target: HLA-A*32:01; assay: as above; details: source organism: Dengue virus 2 Jamaica/1409/1983
[43] = molecular target: HLA-B*15:01; assay: as above; details: source organism: Dengue virus 2 Jamaica/1409/1983
[44] = molecular target: HLA-B*57:01; assay: as above; details: source organism: Dengue virus 2 Jamaica/1409/1983
[45] = source organism: Influenza A virus (A/Viet Nam/HN/2004(H5N1))
[46] = source organism: Mycobacterium tuberculosis
[47] = source organism: Vaccinia virus WR
[48] = source organism: Camelpox virus M-96
[49] = source organism: Marburg virus - Musoke, Kenya, 1980
[50] = source organism: Giardia lamblia ATCC 50803

Work on LFPELDCFF yielded a Kd ([1]; source organism: Orthohantavirus dobravaense) of 0.011 µM and a Kd ([2]; source organism: Kurkino virus) of no less than 20 µM.
WVDSTPPPG showed a Kd ([3]; source organism: Homo sapiens) of no less than 20 µM and a Kd [4] of 11.6 µM.
RNEQGQTLW gave a Kd [5, 45] of no less than 20 µM, a Kd [6, 45] of no less than 20 µM and a Kd [7, 45] of no less than 20 µM. For the same sequence, the Kd [8, 45] was no less than 20 µM, the Kd [9, 45] was no less than 20 µM and the Kd [10, 45] was no less than 20 µM. It also gave a Kd [11, 45] of no less than 20 µM, a Kd [12, 45] of no less than 20 µM and a Kd [13, 45] of no less than 20 µM. It also gave a Kd [14, 45] of no less than 20 µM, a Kd [15, 45] of no less than 20 µM and a Kd [16, 45] of no less than 20 µM. The Kd [17] was no less than 20 µM and the Kd [18, 45] was 0.0718 µM.
HADDIPVPV was tested, and the Kd ([2]; source organism: Escherichia coli B171) was no less than 20 µM, the Kd [19] was 0.004 µM and the Kd ([20]; source organism: Escherichia coli) was 0.0649 µM.
KTVCVQATK was tested, and the Kd [5, 46] was no less than 20 µM and the Kd [3, 46] was no less than 20 µM.
FTSSFYNYV gave a Kd [2, 47] of no less than 20 µM, a Kd [21] of 0.089 µM and a Kd [22] of 0.818 µM. It also gave a Kd [23] of no more than 0.001 µM, a Kd [24] of 0.019 µM and a Kd [20, 47] of 0.0046 µM.
SHEQGDIAL was tested, and the Kd [5, 48] was no less than 20 µM, the Kd [6, 48] was no less than 20 µM and the Kd [25, 48] was no less than 20 µM. The Kd [26, 48] was no less than 20 µM, the Kd [11, 48] was no less than 20 µM and the Kd [13, 48] was no less than 20 µM. The Kd [27, 48] was no less than 20 µM, the Kd [28] was no less than 20 µM and the Kd [14, 48] was no less than 20 µM. The Kd [29] was 0.0925 µM, the Kd [30, 48] was no less than 20 µM and the Kd [18, 48] was no less than 20 µM. For the same sequence, the Kd ([31]; source organism: Vaccinia virus L-IPV) was 2.3 µM, the Kd [32] was no less than 20 µM and the Kd [33] was no less than 20 µM.
With GFPSLESSF the Kd [5, 49] was no less than 20 µM, the Kd [6, 49] was no less than 20 µM and the Kd [8, 49] was no less than 20 µM. For the same sequence, the Kd [34] was 0.0555 µM, the Kd [9, 49] was 0.26 µM and the Kd [1, 49] was 0.0395 µM. The Kd [35] was no less than 20 µM, the Kd [10, 49] was no less than 20 µM and the Kd [25, 49] was no less than 20 µM. The Kd [26, 49] was no less than 20 µM, the Kd [11, 49] was no less than 20 µM and the Kd ([12]; source organism: Ravn virus - Ravn, Kenya, 1987) was no less than 20 µM. The Kd [36] was no less than 20 µM, the Kd [27, 49] was no less than 20 µM and the Kd [30, 49] was no less than 20 µM. The Kd [18, 49] was no less than 20 µM, the Kd [37] was 2.92 µM and the Kd [38] was no less than 20 µM. It also gave a Kd [39] of no less than 20 µM, a Kd [40] of 0.263 µM and a Kd ([31]; source organism: Orthomarburgvirus marburgense) of 0.877 µM.
MYMALIAAF showed a Kd ([2]; source organism: Yellow fever virus) of no less than 20 µM.
With ETKKRMDYF the Kd [5, 50] was no less than 20 µM, the Kd [6, 50] was no less than 20 µM and the Kd [7, 50] was no less than 20 µM. For the same sequence, the Kd [9, 50] was no less than 20 µM, the Kd [11, 50] was no less than 20 µM and the Kd [12, 50] was 1.56 µM. The Kd [13, 50] was no less than 20 µM, the Kd [14, 50] was no less than 20 µM and the Kd [15, 50] was no less than 20 µM. It also gave a Kd [16, 50] of no less than 20 µM and a Kd [18, 50] of no less than 20 µM.
For KTWAYHGSY, the Kd ([3]; source organism: dengue virus type 3) was 3 µM, the Kd [41] was 4.05 µM and the Kd [42] was 0.00506 µM. The Kd [43] was 0.00288 µM and the Kd [44] was 0.00457 µM.
Sequence IFPSMYFLM has a Kd ([9]; source organism: Entamoeba histolytica HM-1:IMSS) of 0.002 µM.
